Laboratory results reported in patent publication US20250152742A1, “COMPOSITIONS AND METHODS FOR NEUROLOGICAL DISEASES” (Trames Bio, Inc., priority 2022, published 2025).

Test system: engineered chimeric receptor SEQ ID NO: 33 and its mutants (human α7-nAChR ligand binding domain / human GlyRα1 ion pore domain) in Lenti-X 293T cells
Assay: YFP fluorescence quenching anion reporter plate reader assay (percent quench, EC50)
Type: cell-based
Conditions: for YFP fluorescence quenching using CNL001 (percent quench): receptor named in row; for YFP fluorescence quenching using Varenicline, 3 nM var: ligand Varenicline 3 nM; for YFP fluorescence quenching using Varenicline, 30 nM var: ligand Varenicline 30 nM; for YFP fluorescence quenching using Varenicline, 300 nM var: ligand Varenicline 300 nM; for YFP fluorescence quenching using Varenicline, 500 nM var: ligand Varenicline 500 nM; for YFP fluorescence quenching using Varenicline, 1 uM var: ligand Varenicline 1 uM
Procedure, shortened: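 Lenti-X 293T cells co-expressing an anion-quenchable YFP were transiently transfected with receptor DNA, then ligand was added in NaI-substituted buffer (pH 7.2) after 30 min at 37 °C. Fluorescence was read about 2 min; percent quench = mean of last 10 s over 15 s pre-ligand baseline.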

B1: CODA965: engineered receptor: Y140C in SEQ ID NO: 33 (protein)
chain: MRCSPGGVWLALAASLLHVSLQGEFQRKLYKELVKNYNPLERPVANDSQPLTVYFSLSLLQIMDVDEKNQVLTTNIWLQMSWTDHYLQWNVSEYPGVKTVRFPDGQIWKPDILLYNSADERFDATFHTNVLVNSSGHCQCLPPGIFKSSCPMDLKNFPMDVQTCKLKFGSWSYGGWSLDLQMQEADISGYIPNGEWDLVGIPGKRSERFYECCKEPYPDVTFTVTMRRRMGYYLIQMYIPSLLIVILSWISFWINMDAAPARVGLGITTVLTMTTQSSGSRASLPKVSYVKAIDIWMAVCLLFVFSALLEYAAVNFVSRQHKELLRFRRKRRHHKSPMLNLFQEDEAGEGRFNFSAYGMGPACLQAKDGISVKGANNSNTTNPPPAPSKSPEEMRKLFIQRAKKIDKISRIGFPMAFLIFNMFYWIIYKIVRREDVHNQ
modifications: synthetic sequence of chimeric LGIC
YFP fluorescence quenching using CNL001 (percent quench) (1 nM CNL001, first column so headed): −12.765%
YFP fluorescence quenching using CNL001 (percent quench) (1 nM CNL001, second column so headed): −12.608%
YFP fluorescence quenching using TC-5619/Bradanicline (percent quench) (3 nM brd (TC-5619/Bradanicline)): −18.49%
YFP fluorescence quenching using CNL001 (percent quench) (10 nM CNL001, first column so headed): 68.134%
YFP fluorescence quenching using CNL001 (percent quench) (10 nM CNL001, second column so headed): 71.394%
YFP fluorescence quenching using TC-6683 (percent quench) (30 nM TC-6683): −8.21%
YFP fluorescence quenching using TC-5619/Bradanicline (percent quench) (30 nM brd (TC-5619/Bradanicline)): 22.66%
YFP fluorescence quenching using CNL001 (percent quench) (50 nM CNL001, first column so headed): 80.298%
YFP fluorescence quenching using CNL001 (percent quench) (50 nM CNL001, second column so headed): 82.159%
YFP fluorescence quenching using ABT-126 (percent quench) (50 nM abt (ABT-126)): −10.75%
YFP fluorescence quenching using CNL001 (percent quench) (100 nM CNL001, first column so headed): 82.404%
YFP fluorescence quenching using CNL001 (percent quench) (100 nM CNL001, second column so headed): 82.14%
YFP fluorescence quenching (percent quench) (100 nM CNL002): 43.24%
YFP fluorescence quenching using ABT-126 (percent quench) (100 nM abt (ABT-126)): −4.11%
YFP fluorescence quenching using AZD-0328 (percent quench) (100 nM azd0328): −16.69%
YFP fluorescence quenching using TC-6683 (percent quench) (300 nM TC-6683): −16.37%
YFP fluorescence quenching using ABT-126 (percent quench) (300 nM abt (ABT-126)): 18.93%
YFP fluorescence quenching using AZD-0328 (percent quench) (300 nM azd0328): 1.3%
YFP fluorescence quenching using TC-5619/Bradanicline (percent quench) (300 nM brd (TC-5619/Bradanicline)): 38.02%
YFP fluorescence quenching using CNL001 (percent quench) (1 uM CNL001, first column so headed): 82.34%
YFP fluorescence quenching using CNL001 (percent quench) (1 uM CNL001, second column so headed): 80.649%
YFP fluorescence quenching (percent quench) (1 uM CNL002): 42.72%
YFP fluorescence quenching using ABT-126 (percent quench) (1 uM abt (ABT-126)): 52.64%
YFP fluorescence quenching using TC-6683 (percent quench) (3 uM TC-6683): −19.48%
YFP fluorescence quenching (percent quench) (10 uM ach (acetylcholine)): −21.71%
YFP fluorescence quenching (percent quench) (30 uM CNL002): 51.43%
YFP fluorescence quenching using TC-6683 (percent quench) (30 uM TC-6683): −24.32%
YFP fluorescence quenching using AZD-0328 (percent quench) (30 uM azd0328): 21.78%
YFP fluorescence quenching using TC-6683 (percent quench) (100 uM TC-6683): −24.99%
YFP fluorescence quenching (percent quench) (100 uM ach (acetylcholine)): 3.49%
YFP fluorescence quenching (percent quench) (1 mM ach (acetylcholine)): 63.34%
YFP fluorescence quenching (percent quench) (3 mM ach (acetylcholine)): 51.92%
YFP fluorescence quenching using Facinicline, 30 nM fac (ligand Facinicline 30 nM): −12.29
YFP fluorescence quenching using Facinicline, 300 nM fac (ligand Facinicline 300 nM): 20.11
YFP fluorescence quenching using Facinicline, 30 uM fac (ligand Facinicline 30 uM): 37.62
YFP fluorescence quenching using TC-6987, 1 uM tc6987 (ligand TC-6987 1 uM): 2.73
YFP fluorescence quenching using TC-6987, 10 uM tc6987 (ligand TC-6987 10 uM): 30.37
YFP fluorescence quenching using TC-6987, 500 uM tc6987 (ligand TC-6987 500 uM): 33.07
YFP fluorescence quenching using Varenicline, 3 nM var (first column): −17.716
YFP fluorescence quenching using Varenicline, 3 nM var (second column): −23.019
YFP fluorescence quenching using Varenicline, 30 nM var (first column): −14.993
YFP fluorescence quenching using Varenicline, 30 nM var (second column): −12.182
YFP fluorescence quenching using Varenicline, 300 nM var (first column): −11.731
YFP fluorescence quenching using Varenicline, 300 nM var (second column): −10.13
YFP fluorescence quenching using Varenicline, 500 nM var (first column): −12.518
YFP fluorescence quenching using Varenicline, 500 nM var (second column): −15.043
YFP fluorescence quenching using Varenicline, 1 uM var (first column): −13.385
YFP fluorescence quenching using Varenicline, 1 uM var (second column): −17.022
